The record followed here is patent publication US20240132615A1 (ICHNOS SCIENCES, published 2024).

Positions count from the first letter of the chain named.

For experiment [1], the target named is T1, recombinant human BCMA protein (Acrobiosystems BCA-H522y) (human, UniProt Q02223 1-54).
T1 construct: bought protein
T1 sequence (looked up): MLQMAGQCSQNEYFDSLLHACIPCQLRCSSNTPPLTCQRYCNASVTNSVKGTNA
As to the kind of experiment: SPR, Fab as analyte, immobilised human BCMA, 1:1 Langmuir. Background: SPR reads the build-up and loss of mass on a sensor chip optically.

The target in experiment [2] is T2, human BCMA on cells (NCI-H929, NCI-H929 CD38 KO, MOLP-8) (human, UniProt Q02223 1-184).
T2 construct: whole, on cells; endogenous BCMA of myeloma cell lines
T2 sequence (looked up): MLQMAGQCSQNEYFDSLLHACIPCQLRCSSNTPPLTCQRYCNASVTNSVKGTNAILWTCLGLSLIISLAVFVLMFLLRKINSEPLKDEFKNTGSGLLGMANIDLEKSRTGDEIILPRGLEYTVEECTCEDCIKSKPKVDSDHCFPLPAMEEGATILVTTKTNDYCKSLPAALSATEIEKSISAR
As to the kind of experiment: flow cytometry, NCI-H929 cells. Background: Flow cytometry measures light scatter and fluorescence of single cells or particles in a stream.

Experiment [3] addresses T2, human BCMA on cells (NCI-H929, NCI-H929 …). The experiment in a line: flow cytometry, NCI-H929 cells, one-site fit.
Experiment [4] addresses T3, Biotinylated Human BCMA/TNFRSF17 Protein, His, Avitag (Acrobiosystems BCA-H82E4) (human, UniProt Q02223 1-54, biotinylated).
T3 construct: bought protein; also called biotinylated recombinant human BCMA protein; hBCMA
T3 sequence (looked up): T1 sequence (looked up)
The experiment in a line: SPR, Fab as analyte, biotin-captured human BCMA.

The target in experiment [5] is T4, biotinylated recombinant cynomolgus monkey BCMA Fc fusion protein (Acrobiosystems BCA-C82F4) (cynomolgus monkey, UniProt A0A2K5UD97 1-53).
T4 construct: bought protein; not shown: Fc of the bought fusion protein, not described
T4 sequence (A0A2K5UD97 entry or part of it): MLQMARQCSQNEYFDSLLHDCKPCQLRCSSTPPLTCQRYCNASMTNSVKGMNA
As to the kind of experiment: SPR, Fab as analyte, biotin-captured cynomolgus BCMA-Fc.

In experiment [6] the target is T5, Biotinylated Human CD38 Protein, Avitag, His Tag (Acrobiosystems CD8-H82E7) (human, UniProt P28907 43-300, biotinylated).
T5 construct: bought protein; also called biotinylated recombinant human CD38 protein; human CD38-avi-his
As to the kind of experiment: SPR, Fab as analyte, biotin-captured human CD38.

The target in experiment [7] is T6, recombinant cynomolgus monkey CD38-ECD-C-his protein (cynomolgus monkey, UniProt Q5VAN0 45-301).
T6 construct: made in house; Q5VAN0 residues 43-301 (residue 44 deleted) with C-terminal 6-His; also called cynomolgus monkey CD38-C-His; recombinant cynomolgus monkey CD38 protein
The experiment in a line: SPR, Fab as analyte, captured cynomolgus CD38-his.

Experiment [8] concerns the target recombinant cynomolgus monkey BCMA protein (Acrobiosystems BCA-C52H7) (cynomolgus monkey, UniProt A0A2K5UD97 1-53). As to the kind of experiment: SPR, Fab as analyte, immobilised cynomolgus BCMA, 1:1 Langmuir.

recombinant cynomolgus monkey BCMA protein (Acrobiosystems BCA-C52H7), sequence (A0A2K5UD97 entry or part of it): as above

B1: anti-BCMA-UCP01-A10 FAB (Fab, V domains shown)
VH: QVQLVQSGAEVKKPGSSVKVSCKASGYVFSDHIISWVRQAPGQGLEWMGGIIPHGGAPTYAQKFQGRVTITADESTSTAYMELSSLRSEDTAVYYCARDLFDYYPQGFDYWGQGTLVTVSS
VL: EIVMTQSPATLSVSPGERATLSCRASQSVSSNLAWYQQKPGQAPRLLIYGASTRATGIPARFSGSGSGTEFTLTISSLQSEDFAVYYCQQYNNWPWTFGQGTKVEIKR
notes: Fab
As usually defined, the Kd is a measure of binding affinity in units of concentration. With B1, the Kd in experiment [1] is 214 nM.

B2: Anti-BCMA-E6-PP02-D2 FAB (Fab, V domains shown)
VH: EVQLLESGGGLVQPGGSLRLSCAASGFTFSYYAMTWVRQAPGKGLEWVSTISQQNEQTKYADSVKGRFTISRDNSKNTLYLQMNSLRAEDTAVYYCARSPYSYLHGYYGFDYWGQGTLVTVSS
VL: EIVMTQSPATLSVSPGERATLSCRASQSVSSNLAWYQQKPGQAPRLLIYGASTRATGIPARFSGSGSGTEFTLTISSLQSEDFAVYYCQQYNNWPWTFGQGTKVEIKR
notes: Fab
Consider B2, for which the “Maximum binding (RFI)” value in experiment [2] was 36300 RFI. Also, the results for the Kd in experiment [3], in experiment [4] and in experiment [5] were 6.58 nM, 0.342 nM and 0.97 nM, respectively.

B3: Anti-BCMA-E6-PP02-B1 FAB (Fab, V domains shown)
VH: B2 VH with I51V, Q54A, N55G, E56Y, Q57D
VL: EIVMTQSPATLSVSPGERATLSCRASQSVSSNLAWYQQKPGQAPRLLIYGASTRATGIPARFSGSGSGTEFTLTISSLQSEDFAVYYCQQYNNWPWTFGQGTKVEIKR
notes: Fab; also called anti-BCMA-E6-B1; E6-B1
Consider B3, for which, in experiment [2], the “Maximum binding (RFI)” value turned out to be 34700 RFI. Moreover, the figures for the Kd in experiment [3], in experiment [4] and in experiment [5] were 3.72 nM, 0.182 nM and 0.51 nM, respectively.

B4: Anti-BCMA-E6-PP02-C7 FAB (Fab, V domains shown)
VH: B2 VH with Q54S, N55G, E56L, Q57V, T58P
VL: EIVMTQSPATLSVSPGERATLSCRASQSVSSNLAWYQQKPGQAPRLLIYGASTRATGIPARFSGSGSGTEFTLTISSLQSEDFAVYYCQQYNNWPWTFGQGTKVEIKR
notes: Fab
As for B4, in experiment [2], the “Maximum binding (RFI)” value amounted to 38600 RFI. Moreover, the figures for the Kd in experiment [3], in experiment [4] and in experiment [5] were 6.83 nM, 0.3 nM and 1.19 nM, respectively.

B5: Anti-BCMA-E6-PP02-G6 FAB (Fab, V domains shown)
VH: B2 VH with S52A, Q54R, N55G, E56G
VL: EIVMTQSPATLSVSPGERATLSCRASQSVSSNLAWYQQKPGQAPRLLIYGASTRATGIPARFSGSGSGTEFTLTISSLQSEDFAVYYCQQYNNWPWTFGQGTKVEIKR
notes: Fab; also called anti-BCMA-E6-G6; E6-G6
Turning to B5, the “Maximum binding (RFI)” value in experiment [2] turned out to be 46500 RFI. Also, the dissociation constant Kd in experiment [3] stood at 5.78 nM; in experiment [4], 0.33 nM; in experiment [5], 2.26 nM.

B6: Anti-BCMA-E6-PP02-A3 FAB (Fab, V domains shown)
VH: B2 VH with Q53S, E56D, Q57I
VL: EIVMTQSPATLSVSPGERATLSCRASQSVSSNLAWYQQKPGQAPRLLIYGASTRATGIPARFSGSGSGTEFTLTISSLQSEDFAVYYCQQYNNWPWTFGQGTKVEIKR
notes: Fab
With B6, the “Maximum binding (RFI)” value in experiment [2] was 40200 RFI. For the same molecule, the Kd in experiment [3] was determined as 6.37 nM; in experiment [4], 0.33 nM; in experiment [5], 0.915 nM.

B7: Anti-BCMA-E6-PP02-G7 FAB (Fab, V domains shown)
VH: B2 VH with N55W, E56D, Q57V
VL: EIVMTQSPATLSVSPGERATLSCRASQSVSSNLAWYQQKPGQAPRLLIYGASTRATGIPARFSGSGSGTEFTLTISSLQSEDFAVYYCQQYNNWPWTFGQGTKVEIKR
notes: Fab
Consider B7, for which, in experiment [2], the “Maximum binding (RFI)” value amounted to 39400 RFI. For the same molecule, the Kd in experiment [3] stood at 4.86 nM; in experiment [4], 0.061 nM; in experiment [5], 0.237 nM.

B8: Anti-BCMA-E6-PP02-E6 FAB (Fab, V domains shown)
VH: B2 VH with Q54A, N55G, E56R, Q57D, T58F
VL: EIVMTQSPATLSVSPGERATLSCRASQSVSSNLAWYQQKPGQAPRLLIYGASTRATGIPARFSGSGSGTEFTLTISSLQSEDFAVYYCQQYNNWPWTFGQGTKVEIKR
notes: Fab; also called anti-BCMA-E6-E6; E6-E6
For the molecule B8, in experiment [2], the “Maximum binding (RFI)” value was found to be 43200 RFI. The results for the dissociation constant (Kd) in experiment [3], in experiment [4] and in experiment [5] were 5.13 nM, 0.169 nM and 0.615 nM, respectively.

B9: Anti-BCMA-E6-PP02-F7 FAB (Fab, V domains shown)
VH: B2 VH with S52G, Q54R, N55G, E56F
VL: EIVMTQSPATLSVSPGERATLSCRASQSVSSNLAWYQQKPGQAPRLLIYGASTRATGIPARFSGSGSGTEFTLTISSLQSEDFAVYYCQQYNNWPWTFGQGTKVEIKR
notes: Fab
Regarding B9, the “Maximum binding (RFI)” value in experiment [2] amounted to 44700 RFI. Besides, the Kd in experiment [3] came out at 5.53 nM; in experiment [4], 0.22 nM; in experiment [5], 0.964 nM.

B10: Anti-BCMA-E6-PP02-B4 FAB (Fab, V domains shown)
VH: B2 VH with Q54P, N55G, E56F, Q57D, T58A
VL: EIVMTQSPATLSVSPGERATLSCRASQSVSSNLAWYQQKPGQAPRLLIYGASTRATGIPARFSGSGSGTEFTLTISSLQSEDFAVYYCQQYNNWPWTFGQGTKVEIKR
notes: Fab
On to B10, for which, in experiment [2], the “Maximum binding (RFI)” value was 43500 RFI. In addition, the Kd is 5.49 nM in experiment [3], 0.086 nM in experiment [4] and 0.857 nM in experiment [5].

B11: Anti-CD38-B3-PP11-A2 FAB (Fab, V domains shown)
VH: QVQLVQSGAEVKKPGSSVKVSCKASGQTTPMYSISWVRQAPGQGLEWMGRIIPTGANANYAQKFQGRVTITADESTSTAYMELSSLRSEDTAVYYCARSWPSLGSGWFDIWGQGTLVTVSS
VL: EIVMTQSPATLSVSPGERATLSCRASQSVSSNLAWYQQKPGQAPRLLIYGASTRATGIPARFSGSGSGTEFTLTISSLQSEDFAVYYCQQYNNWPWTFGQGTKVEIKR
notes: Fab
For the molecule B11, the Kd in experiment [6] amounted to 38.4 nM; in experiment [7], 62.5 nM.

B12: Anti-CD38-B3-PP11-H10 FAB (Fab, V domains shown)
VH: B11 VH with Q27G, T28D, T29F, P30T, M31L, S102H, L103Y
VL: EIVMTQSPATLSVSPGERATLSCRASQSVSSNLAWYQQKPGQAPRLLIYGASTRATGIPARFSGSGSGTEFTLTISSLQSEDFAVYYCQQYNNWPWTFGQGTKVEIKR
notes: Fab
Take B12: the equilibrium dissociation constant (Kd) came out at 6.2 nM in experiment [6] and 22.7 nM in experiment [7].

B13: Anti-CD38-B3-PP11-D11a FAB (Fab, V domains shown)
VH: B11 VH with Q27G, T28D, T29F, P30T, M31L, S102I, S105N
VL: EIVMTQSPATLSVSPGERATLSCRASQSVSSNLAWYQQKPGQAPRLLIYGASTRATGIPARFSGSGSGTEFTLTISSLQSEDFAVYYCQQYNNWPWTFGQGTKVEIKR
notes: Fab
Turning to B13, the Kd in experiment [6] came out at 8.2 nM; in experiment [7] it was 17.3 nM.

B14: Anti-CD38-B3-PP11-D1b FAB (Fab, V domains shown)
VH: B11 VH with Q27I, T28Q, P30R, M31W
VL: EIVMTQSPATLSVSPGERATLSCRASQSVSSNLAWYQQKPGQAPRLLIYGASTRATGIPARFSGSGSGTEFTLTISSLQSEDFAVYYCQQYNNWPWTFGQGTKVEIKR
notes: Fab
Take B14: the Kd was 5.8 nM in experiment [6] and 14.6 nM in experiment [7].

B15: Anti-CD38-B3-PP11-H1a FAB (Fab, V domains shown)
VH: B11 VH with T28N, T29E, P30R
VL: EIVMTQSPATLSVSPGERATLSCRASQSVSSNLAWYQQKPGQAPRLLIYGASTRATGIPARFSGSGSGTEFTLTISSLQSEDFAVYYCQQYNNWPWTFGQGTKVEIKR
notes: Fab
As for B15, the Kd in experiment [6] came to 15.3 nM; in experiment [7], 17.9 nM.

B16: Anti-CD38-B3-PP11-E11 FAB (Fab, V domains shown)
VH: B11 VH with Q27G, T28D, T29F, P30T, M31L, L103Y, S105K
VL: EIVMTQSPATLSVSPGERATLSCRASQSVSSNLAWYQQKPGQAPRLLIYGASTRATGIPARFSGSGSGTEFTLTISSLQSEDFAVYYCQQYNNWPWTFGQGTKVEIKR
notes: Fab
For B16, the Kd in experiment [6] is 2 nM; in experiment [7] it was 8.9 nM.

B17: Anti-CD38-B3-PP11-D1a FAB (Fab, V domains shown)
VH: B11 VH with Q27M, T28Q, P30R, M31W
VL: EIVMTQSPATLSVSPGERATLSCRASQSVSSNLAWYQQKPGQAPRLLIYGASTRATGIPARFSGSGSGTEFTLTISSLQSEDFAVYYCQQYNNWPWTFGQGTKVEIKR
notes: Fab
Turning to B17, the Kd in experiment [6] is 10 nM; in experiment [7], 9.6 nM.

B18: Anti-CD38-B3-PP11-E1 FAB (Fab, V domains shown)
VH: B11 VH with T28H, T29K, P30R, M31V
VL: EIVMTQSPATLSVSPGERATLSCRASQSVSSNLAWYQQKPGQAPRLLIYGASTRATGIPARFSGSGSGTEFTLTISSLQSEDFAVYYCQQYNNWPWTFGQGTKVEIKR
notes: Fab
For the molecule B18, the Kd in experiment [6] was found to be 10.5 nM; in experiment [7], 26.3 nM.

B19: Anti-CD38-B3-PP11-C11 FAB (Fab, V domains shown)
VH: B11 VH with Q27G, T28D, T29F, P30T, M31L, W100T, S102T, L103Y
VL: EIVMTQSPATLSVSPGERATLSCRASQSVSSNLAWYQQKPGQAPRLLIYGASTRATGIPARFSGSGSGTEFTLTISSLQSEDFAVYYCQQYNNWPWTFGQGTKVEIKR
notes: Fab; also called anti-CD38-B3-C11; B3-C11
On to B19, for which the Kd was found to be 5.4 nM in experiment [6] and 25 nM in experiment [7].

B20: Anti-BCMA-E6-PP02-G2 FAB (Fab, V domains shown)
VH: EVQLLESGGGLVQPGGSLRLSCAASGFTFSYYAMTWVRQAPGKGLEWVGTISQSVGQVVKYADSVKGRFTISRDNSKNTLYLQMNSLRAEDTAVYYCARSPYSYLHGYYGFDYWGQGTLVTVSS
VL: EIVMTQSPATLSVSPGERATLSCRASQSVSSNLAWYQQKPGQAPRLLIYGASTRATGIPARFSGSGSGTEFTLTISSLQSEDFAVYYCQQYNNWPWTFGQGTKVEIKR
notes: Fab
Consider B20, for which the “Maximum binding (RFI)” value in experiment [2] was found to be 40500 RFI. Also, the results for the Kd in experiment [3], in experiment [4] and in experiment [5] were 5.22 nM, 0.176 nM and 0.728 nM, respectively.

B21: Anti-CD38-E2-UCP02-F3 FAB (Fab, V domains shown)
VH: QVQLVQSGAEVKKPGSSVKVSCKASGGSFSNYAIGWVRQAPGQGLEWMGRIIPVLDAAHYAQKFQGRVTITADESTSTAYMELSSLRSEDTAVYYCARGLGYYLYSSYYFDIWGQGTLVTVSS
VL: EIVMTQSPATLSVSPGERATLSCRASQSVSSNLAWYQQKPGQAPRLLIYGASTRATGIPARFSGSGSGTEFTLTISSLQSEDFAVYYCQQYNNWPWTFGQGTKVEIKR
notes: Fab
B21: the Kd in experiment [6] stood at 3.5 nM; in experiment [7], 2.4 nM.

B22: Anti-CD38-E2-UCP02-G8 FAB (Fab, V domains shown)
VH: B21 VH with V54A, D56G, A57G, A58V
VL: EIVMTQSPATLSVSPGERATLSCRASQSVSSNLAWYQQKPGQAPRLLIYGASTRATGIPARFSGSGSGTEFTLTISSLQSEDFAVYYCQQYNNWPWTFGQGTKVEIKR
notes: Fab
For B22, the Kd in experiment [6] worked out at 5.2 nM; in experiment [7] it was 4.2 nM.

B23: Anti-CD38-E2-UCP02-F8 FAB (Fab, V domains shown)
VH: B21 VH with V54S, A58G
VL: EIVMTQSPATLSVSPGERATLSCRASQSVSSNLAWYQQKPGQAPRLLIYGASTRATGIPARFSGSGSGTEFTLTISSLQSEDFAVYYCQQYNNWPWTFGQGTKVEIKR
notes: Fab
As to B23, the Kd in experiment [6] was 17.6 nM; in experiment [7], 24.5 nM.

B24: anti-BCMA-PP02-A3 FAB (Fab, V domains shown)
VH: EVQLLESGGGLVQPGGSLRLSCAASGFTFSQYAMSWVRQAPGKGLEWVSIISQDGGVTVYADSVKGRFTISRDNSKNTLYLQMNSLRAEDTAVYYCARSPYGGGSYIPHDSWGQGTLVTVSS
VL: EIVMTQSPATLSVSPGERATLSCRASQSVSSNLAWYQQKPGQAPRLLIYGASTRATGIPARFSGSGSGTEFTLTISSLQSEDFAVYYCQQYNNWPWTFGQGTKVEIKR
notes: Fab
Regarding B24, the equilibrium dissociation constant (Kd) in experiment [1] is 318 nM.

B25: anti-BCMA-UCP01-E9 FAB (Fab, V domains shown)
VH: EVQLLESGGGLVQPGGSLRLSCAASGFTFSNYAMSWVRQAPGKGLEWVSVISERGAVTVYADSVKGRFTISRDNSKNTLYLQMNSLRAEDTAVYYCARSPYGYSSGVEGYFGFDVWGQGTLVTVSS
VL: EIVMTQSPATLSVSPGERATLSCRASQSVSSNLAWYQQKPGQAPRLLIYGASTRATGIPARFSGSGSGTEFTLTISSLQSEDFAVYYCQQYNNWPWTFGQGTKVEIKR
notes: Fab
On to B25, for which the results for the Kd in experiment [1] and in experiment [8] were 10 nM and 236 nM, respectively.

B26: anti-BCMA-PP02-D3 FAB (Fab, V domains shown)
VH: EVQLVESGGGLIQPGGSLRLSCAASGFIFSHYEMNWVRQAPGKGLEWVSAIGQGGNTVYADSVKGRFTISRDNSKNTLYLQMNSLRAEDTAVYYCARVPYSYSGYSGADIWGQGTLVTVSS
VL: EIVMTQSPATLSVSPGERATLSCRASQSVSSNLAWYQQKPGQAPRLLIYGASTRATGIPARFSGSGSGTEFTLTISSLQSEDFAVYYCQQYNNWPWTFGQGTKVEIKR
notes: Fab; also called anti-BCMA-D3; anti-BCMA-D3 Fab
For the molecule B26, the Kd was 15 nM in experiment [1] and 40 nM in experiment [8].
